We go through one molecule from article PMC7589338, “The strawberry transcription factor FaRAV1 positively regulates anthocyanin accumulation by activation of FaMYB10 and anthocyanin pathway genes”.

This series addresses T1, FaRAV1 (Fragaria × ananassa, UniProt A0A3Q8TB28 1-301).
T1 sequence: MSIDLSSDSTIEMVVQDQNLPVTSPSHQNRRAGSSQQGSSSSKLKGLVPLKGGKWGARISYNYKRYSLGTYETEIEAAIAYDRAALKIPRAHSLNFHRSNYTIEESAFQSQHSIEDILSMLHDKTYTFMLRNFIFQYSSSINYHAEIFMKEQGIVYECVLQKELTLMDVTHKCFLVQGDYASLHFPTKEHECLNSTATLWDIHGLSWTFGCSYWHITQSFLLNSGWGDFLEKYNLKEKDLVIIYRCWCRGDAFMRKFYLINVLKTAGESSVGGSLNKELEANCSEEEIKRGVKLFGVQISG
Put plainly: EMSA; 8 nM biotinylated probe; LightShift Chemiluminescent EMSA kit (Thermo), per manufacturer and Ge et al. 2017; 8 nM biotin probe; binding buffer, pH and temperature not stated. As to conditions: protein: recombinant; tags: His (pET-32a; described as N-terminal FaRAV1-His fusion); label: 3'-biotin; blunt.

B1: FaMYB10 promoter mutant probe (dsDNA)
DNA 1: AGGGTGGGGACTCGACAGTTTTTAGCTAACTTCCACATGCAATGGATCGAAAT
DNA 2: ATTTCGATCCATTGCATGTGGAAGTTAGCTAAAAACTGTCGAGTCCCCACCCT
As for B1, the binding result was “no binding”.
